Luciferase reporter assay, TLR5 activity data for one substance are collected here from patent US9193770.

This experiment deals with TLR5 of the luciferase reporter assay. The experiment in a line: cell-based or functional assay.

“native H7 flagellin purified from E. coli O157:H7 (ligand)” had a luciferase reporter assay, TLR5 activity of 0.1 ng/mL.
